Data from publication PMC2195822 (The Journal of Experimental Medicine, 2000).
Like-named read-outs stand apart in the source and are kept apart here. No end group written: not given here.

What was measured:
[1] = Diffusion–sedimentation equilibrium; format: physicochemical; settings: 150 μM peptide
[2] = target: the molecule itself; experiment: AUC
[3] = target: the molecule itself; experiment: AUC; remark: listed apart in the source
[4] = target: the molecule itself; experiment: AUC; remark: listed apart in the source
[5] = target: the molecule itself; experiment: AUC; remark: listed apart in the source

SSTKKTQLQLQ [p5–15]
quaternary structure at 150 μM [1]: dimers

B1: peptide p1–30 (amino acids 1–30 of human IL-2, covering the entire α helix A) (peptide)
peptide: APTSSSTKKTQLQLEHLLLDLQMILNGINN-NH2
stoichiometry N [2]: 8

B2: p1–30Cys labeled on the terminal Cys31 with a fluorescein group (p1–30Cys-FLC) (peptide)
peptide: APTSSSTKKTQLQLEHLLLDLQMILNGINNC(fluorescein)-NH2
stoichiometry N [3]: 4
stoichiometry N [2]: 8

B3: soluble IL-2Rβ 31–230 (residues 31–230 of the IL-2Rβ chain, most of the extracellular part) (domain or fragment, human, UniProt P14784 31-230, looked up)
chain: TSQFTCFYNSRANISCVWSQDGALQDTSCQVHAWPDRRRWNQTCELLPVSQASWACNLILGAPDSQKLTTVDIVTLRVLCREGVRWRVMAIQDFKPFENLRLMAPISLQVVHVETHRCNISWEISQASHYFERHLEFEARTLSPGHTWEEAPLLTLKQKQEWICLETLTPDTQYEFQVRVKPLQGEFTTWSPWSQPLAFR
Kd [4]: 3000 nM
stoichiometry N [4]: 2

B4: IL-2 peptide p1–30Cys (peptide)
peptide: APTSSSTKKTQLQLEHLLLDLQMILNGINNC
stoichiometry N [3]: 4
stoichiometry N [2]: 8

B5: IL-2 peptide p10–30 (peptide)
peptide: TQLQLEHLLLDLQMILNGINN
stoichiometry N [5]: 4
